Each block holds one molecule with its values, some of them ahead of it.
Columns and labels:
[1] = molecular target: T1, purified S1P(983)-C (Cricetulus griseus, UniProt Q9Z2A8, T875N); assay: HPLC assay for S1P activity with 16-amino acid synthetic peptides; format: biochemical, hamster; settings: 4 h, 37° C.
T1 construct: Truncated S1P (amino acids 1-983); GGR linker (NotI site); made in house; host or cells: SRD-12B cells (mutant CHO cells lacking S1P) stably transfected with pCMV-S1P(983)-Myc-His (TR-3117, 'S1P(983) cells'); secreted into the medium and purified on Ni-NTA
T1 sequence (Q9Z2A8 187-983 T875N): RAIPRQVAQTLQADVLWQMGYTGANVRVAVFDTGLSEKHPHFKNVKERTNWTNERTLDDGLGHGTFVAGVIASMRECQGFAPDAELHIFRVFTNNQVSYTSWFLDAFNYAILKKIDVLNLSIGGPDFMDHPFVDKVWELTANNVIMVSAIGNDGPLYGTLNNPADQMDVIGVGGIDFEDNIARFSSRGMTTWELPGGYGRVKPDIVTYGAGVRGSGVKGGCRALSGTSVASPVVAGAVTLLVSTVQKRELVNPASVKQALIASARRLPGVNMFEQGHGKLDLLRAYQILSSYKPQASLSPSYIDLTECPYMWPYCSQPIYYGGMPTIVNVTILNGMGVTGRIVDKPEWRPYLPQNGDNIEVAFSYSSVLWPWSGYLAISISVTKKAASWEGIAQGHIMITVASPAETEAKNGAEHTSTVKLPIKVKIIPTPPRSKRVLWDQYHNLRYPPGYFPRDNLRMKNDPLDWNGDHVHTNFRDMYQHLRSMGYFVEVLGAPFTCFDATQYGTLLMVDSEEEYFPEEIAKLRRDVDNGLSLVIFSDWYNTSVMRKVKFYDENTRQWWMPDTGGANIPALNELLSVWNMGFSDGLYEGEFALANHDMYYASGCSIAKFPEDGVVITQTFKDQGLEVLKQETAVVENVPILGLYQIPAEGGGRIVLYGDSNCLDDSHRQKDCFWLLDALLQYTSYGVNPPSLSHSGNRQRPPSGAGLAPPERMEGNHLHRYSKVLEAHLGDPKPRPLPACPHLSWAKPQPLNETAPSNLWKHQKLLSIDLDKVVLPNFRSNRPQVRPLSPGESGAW
Procedure: HPLC Assay for S1P Activity
Each reaction was carried out in a final volume of […] of assay buffer (see above) containing a 16-amino acid synthetic peptide (final concentration 300 μM); and 3 μg purified S1P(983)-C. After incubation for 4 h at 37° C., the reaction products were separated by reverse-phase HPLC on a 4.6×250-mm RP300 column using a Waters HPLC system. Chromatography was performed in 0.1% (v/v) trifluoroacetic acid at 0.75 ml/min. […] Peptide masses were measured by matrix-assisted laser desorption/ionization (MALDI) mass spectrometry using a Voyager DE time-of-flight mass spectrometer from PerSeptive Biosystems (Framingham, Mass.) with α-cyano-4-hydroxycinnamic acid (Aldrich Chemical, Dorset, UK) as the matrix.
The failure of S1P(983)-C to cleave the RSVL-MCA peptides (SEQ ID NO:11) might have been due to an inability of the enzyme to recognize the RSVL sequence (SEQ ID NO:11), or alternatively it might be due to the resistance of the peptide-MCA bond to cleavage. To distinguish between these possibilities, the inventors prepared 16-residue peptides composed of the amino acids surrounding the internal cleavage Site-B in S1P (i. e., RSLK, SEQ ID NO:18) or Site-1 in SREBP-2 (i. e., RSVL, SEQ ID NO:11). The peptides were incubated with or without purified S1P(983)-C, and the products were separated by HPLC. […]

[2] = system: SREBP-2; assay: Immunoblot of nuclear SREBP-2 in CHO-7, S1P(1052) and S1P(983) cells; format: cell-based, hamster; settings: CHO-7 cells
Procedure: FIGS. 20(A-C). […] FIG. 20A. […] FIG. 20B and FIG. 20C. […] FIG. 20B. […] FIG. 20C. […] Molecular mass standards are expressed in kDa.
The amount was increased when the cells were further deprived of sterols by treatment with compactin (FIG. 20C, lane 2). The band disappeared when the compactin-treated cells were incubated with sterols (FIG. 20C, lane 3). […] In the absence of sterols, nuclear SREBP-2 was found in both the S1P(1052) cells and the S1P(983) cells either in the absence or presence of compactin (FIG. 20C, lanes 7,8,10,11). In both cases nuclear SREBP-2 was abolished by addition of sterols (FIG. 20C, lanes 9 and 12). […] The bottom panel of FIG. 20C confirms that membranes from all of the cells contained the precursor form of SREBP-2.

[3] = system: S1P; assay: Immunoblot of processing of S1P to the B and C forms in transfected cells; settings: S1P(1052) and S1P(983) cells, compactin plus or minus sterols
Source text: Sterol-regulated cleavage of SREBP-2 in SRD-12B cells expressing full-length or truncated S1P. […] SS denotes signal sequence; Pro denotes the propeptide region of S1P; TM denotes transmembrane domain; Ser414 is the active-site serine residue. […] On day 0, cells were set up for studies at a density of 1×10^6 cells/100-mm dish in medium B supplemented with 5% fetal calf serum. On day 2, the cells were switched to medium B containing 5% newborn calf lipoprotein-deficient serum and the indicated addition: none (FIG. 20B and FIG. 20C, lanes 1,4,7,10); 50 μM compactin and 50 μM mevalonate (FIG. 20B and FIG. 20C, lanes 2,5,8,11); 50 μM compactin, 50 μM mevalonate, and a mixture of 1 μg/ml 25-hydroxycholesterol plus 10 μg/ml cholesterol (FIG. 20B and FIG. 20C lanes 3,6,9,12). […] Aliquots of the 10^5 g membrane fraction (10 μg protein) were subjected to SDS-PAGE and immunoblotted with 0.5 μg/ml of anti-Myc monoclonal antibody 9E10. The filters were exposed to Kodak X-Omat Blue XB-1 film for 1 s at room temperature. […]
To quantify expression of the transfected S1P, the cells were homogenized, and a crude membrane pellet was subjected to SDS-PAGE and immunoblotted with an antibody against the Myc tag (FIG. 20B). […]

[4] = molecular target: T2, Ac-RSLK-MCA (Artificial Sequence)
T2 sequence (peptide, N-terminal acetyl; C-terminal amide of 7-amino-4-methyl-coumarin (MCA)): RSLK

[5] = molecular target: T3, Ac-RSVL-MCA (Artificial Sequence)
T3 sequence (peptide, N-terminal acetyl; C-terminal amide of 7-amino-4-methyl-coumarin (MCA)): RSVL

[6] = molecular target: T4, Ac-SGRSVL-MCA (Artificial Sequence)
T4 sequence (peptide, N-terminal acetyl; C-terminal amide of 7-amino-4-methyl-coumarin (MCA)): SGRSVL

[7] = molecular target: T5, Ac-SGSGRSVL-MCA (Artificial Sequence)
T5 sequence (peptide, N-terminal acetyl; C-terminal amide of 7-amino-4-methyl-coumarin (MCA)): SGSGRSVL

[8] = molecular target: T6, Ac-VFASLK-MCA (Artificial Sequence)
T6 sequence (peptide, N-terminal acetyl; C-terminal amide of 7-amino-4-methyl-coumarin (MCA)): VFASLK

[9] = molecular target: T7, Ac-VFRSLK-MCA (Artificial Sequence)
T7 sequence (peptide, N-terminal acetyl; C-terminal amide of 7-amino-4-methyl-coumarin (MCA)): VFRSLK

[10] = molecular target: T8, Ac-VFRSRR-MCA (Artificial Sequence)
T8 sequence (peptide, N-terminal acetyl; C-terminal amide of 7-amino-4-methyl-coumarin (MCA)): VFRSRR

[11] = molecular target: T9, Boc-RVRR-MCA (Artificial Sequence)
T9 sequence (peptide, N-terminal Boc; C-terminal amide of 7-amino-4-methyl-coumarin (MCA)): RVRR

[12] = molecular target: T7, Ac-VFRSLK-MCA (Artificial Sequence); remark: listed apart in the source

- cleavage of 16-residue peptide [1]: did cleave
Molecule: NH2 -His-Ser-Gly-Ser-Gly-Arg-Ser-Val-Leu-Ser-Phe-Glu-Ser-Gly-Ser-Gly-COOH (H-HSGSGRSVLSFESGSG-OH) [SEQ ID NO:55]

Molecule: compactin
- nuclear SREBP-2 [2]: increased
- amounts of the different S1P bands [3]: not altered

- Relative Activity (cleavage of fluorogenic peptide-MCA, AMC liberated) (relative activity) [4]: 0.47
- Relative Activity (cleavage of fluorogenic peptide-MCA, AMC liberated) (relative activity) [5]: < 0.1
- Relative Activity (cleavage of fluorogenic peptide-MCA, AMC liberated) (relative activity) [6]: < 0.1
- Relative Activity (cleavage of fluorogenic peptide-MCA, AMC liberated) (relative activity) [7]: < 0.1
- Relative Activity (cleavage of fluorogenic peptide-MCA, AMC liberated) (relative activity) [8]: < 0.1
- Relative Activity (cleavage of fluorogenic peptide-MCA, AMC liberated) (relative activity) [9]: 1
- Relative Activity (cleavage of fluorogenic peptide-MCA, AMC liberated) (relative activity) [10]: < 0.1
- Relative Activity (cleavage of fluorogenic peptide-MCA, AMC liberated) (relative activity) [11]: < 0.1
- Kcat (cleavage of peptide-MCA) (mol/min/mol of enzyme) [12]: 0.16
- Km (Lineweaver-Burk plot, cleavage of peptide-MCA) [12]: 100 µM
- Vmax (Lineweaver-Burk plot, cleavage of peptide-MCA) (nmol/min/mg protein) [12]: 1.6
B1: S1P(983)-C, purified secreted enzyme (enzyme)
chain: RAIPRQVAQTLQADVLWQMGYTGANVRVAVFDTGLSEKHPHFKNVKERTNWTNERTLDDGLGHGTFVAGVIASMRECQGFAPDAELHIFRVFTNNQVSYTSWFLDAFNYAILKKIDVLNLSIGGPDFMDHPFVDKVWELTANNVIMVSAIGNDGPLYGTLNNPADQMDVIGVGGIDFEDNIARFSSRGMTTWELPGGYGRVKPDIVTYGAGVRGSGVKGGCRALSGTSVASPVVAGAVTLLVSTVQKRELVNPASVKQALIASARRLPGVNMFEQGHGKLDLLRAYQILSSYKPQASLSPSYIDLTECPYMWPYCSQPIYYGGMPTIVNVTILNGMGVTGRIVDKPEWRPYLPQNGDNIEVAFSYSSVLWPWSGYLAISISVTKKAASWEGIAQGHIMITVASPAETEAKNGAEHTSTVKLPIKVKIIPTPPRSKRVLWDQYHNLRYPPGYFPRDNLRMKNDPLDWNGDHVHTNFRDMYQHLRSMGYFVEVLGAPFTCFDATQYGTLLMVDSEEEYFPEEIAKLRRDVDNGLSLVIFSDWYNTSVMRKVKFYDENTRQWWMPDTGGANIPALNELLSVWNMGFSDGLYEGEFALANHDMYYASGCSIAKFPEDGVVITQTFKDQGLEVLKQETAVVENVPILGLYQIPAEGGGRIVLYGDSNCLDDSHRQKDCFWLLDALLQYTSYGVNPPSLSHSGNRQRPPSGAGLAPPERMEGNHLHRYSKVLEAHLGDPKPRPLPACPHLSWAKPQPLNETAPSNLWKHQKLLSIDLDKVVLPNFRSNRPQVRPLSPGESGAWGGREQKLISEEDLGGEQKLISEEDLGPRFEQKLISEEDLDMHTGHHHHHH

— patent US6322962A, “Sterol-regulated Site-1 protease and assays of modulators thereof” (Board of Regents, The University of Texas System, priority 1999, dated 2001)
